Measured values reported in patent US9664676B2, “RNA sequences that induce fluorescence of small molecule fluorophores” (Cornell University, priority 2013, dated 2017).

Experiments:
[1] = In-gel imaging of tBroccoli and tdBroccoli (DFHBI-1T / SYBR Gold staining); type: biochemical; settings: gel band intensity, normalized to molecular weight
Experimental: In-Gel Imaging of Spinach-Containing RNAs: Total bacterial RNA was purified using Trizol LS reagent (Life Technologies) following the manufacturer's protocol. Typically, 200-500 ng of total RNA or 50-100 ng of in vitro transcribed RNA was loaded into a well of precast 6% TBE-Urea Gel (Life Technologies) and ran at 270-300 V in 1×TBE buffer. RiboRuler Low Range RNA Ladder (Thermo Scientific) was used as band size standard.
After the gel was run to completion, the gel was washed 3×5 min with water and then stained for 30 min in 10 μM DFHBI or DFHBI-1T in buffer containing 40 mM HEPES pH 7.4, 100 mM KCl, 1 mM MgCl2. Then gel was imaged using a ChemiDoc MP with 470/30 nm excitation and 532/28 nm emission. Next, to see all the RNA in the sample, the gel was again washed 3×5 min with water followed by staining for 30 min with SYBR Gold (or Green) dye (Life Technologies) diluted 1/10000 in TBE buffer. Then gel was imaged under the same instrument using preset SYBR Gold (or Green) channel (302 nm excitation and 590/110 nm emission). Gel bands intensities were quantified in Image Lab 5.0 software (Bio-Rad). The bacterial 5S rRNA band was used for loading normalization.

[2] = tested on: HEK293T cells; experiment: Flow cytometry of HEK293T cells expressing 5S rRNA-aptamer fusions with DFHBI-1T; type: cell-based; settings: 5S fusions, HEK293T, 40 μM DFHBI-1T
Experimental: FIG. 24 illustrates the quantification of the flow cytometry analysis of aptamers expression in mammalian cells. To compare specific aptamers' brightness in mammalian cells, HEK293T cells were transfected with two plasmids: one expressing aptamer (with or without tRNA) fused to 5S rRNA and another expressing mCherry fluorescent protein. Cells were then treated with 40 μM DFHBI-1T and analyzed on FACSAria III instrument in two channels: green (ex=488 nm; em=525±50 nm) and red (ex=561 nm and em=610±20). For quantification, mean fluorescent signal of the non-negative population was calculated and then mean fluorescent signal of the negative population was subtracted from it to assess specific, not background fluorescent signal. Finally, this number was multiplied by the percentage of the non-negative population to provide the total fluorescent signal of the non-negative population. These numbers are plotted on the bar graph above. Where indicated, cells were also pre-treated with 5 mM MgSO4. Error bar indicates robust SD calculated by FlowJo program, used for data analysis.
Imaging 5S-tBroccoli and 5S-t-tdBroccoli: Plasmids were transfected into HEK293T cell using FuGENE HD reagent (Promega) following manufacture's protocol. Cell imaging was carried out as previously described for 5S-Spinach (Paige et al., “RNA Mimics of Green Fluorescent Protein,” Science 333(6042): 642-6 (2011), which is hereby incorporated by reference in its entirety) with DFHBI-1T instead of DFHBI. […]
Flow cytometry was used to quantify average brightness of tRNA. Transfected cells were analyzed in two channels: green (ex=488 nm; em=525±50 nm) and red (ex=561 nm; em=610±20). […] As evidenced from FIG. 14A, 5S-tBroccoli and 5S-tdBroccoli are clearly detectable in the green fluorescence channel and this specific signal appears only upon cells treatment with DFHBI-1T (FIG. 23).

[3] = Folding assay (fraction of RNA folded, DFHBI); type: physicochemical
Experimental: Folding Assay: The folding assay involves measurement of fluorescence under two conditions, one in which RNA is in excess relative to DFHBI, and one in which the DFHBI is in excess relative to RNA. As Spinach and DFHBI form a 1:1 stoichiometric complex, the maximum amount of complex that can be formed is determined by the limiting component. In the first condition, the fluorescence was determined by incubation of 0.1 μM DFHBI and 100-fold excess (10 μM) Spinach. This value was used to define the fluorescence of 0.1 μM Spinach-DFHBI complex. It was assumed that even if nearly all Spinach is misfolded or unfolded, there will be enough properly folded Spinach to stoichiometrically bind 0.1 μM DFHBI. This was confirmed by measuring fluorescence after doubling the RNA to 20 μM, which caused no increase in fluorescence. In the second condition, the fluorescence obtained using 10 μM DFHBI and 0.1 μM Spinach was measured. In theory, up to 0.1 μM Spinach-DFHBI can form if all the Spinach is folded. However, if a portion of Spinach is unfolded, the fluorescence will be proportionately less than the fluorescence of 0.1 μM Spinach-DFHBI. Thus, this approach can reveal the fraction of Spinach that is folded under diverse conditions.
Fluorescence was measured for each RNA under the following conditions: (i) 0.1 μM RNA and 10 μM DFHBI, and (ii) 0.1 μM DFHBI and 10 μM RNA. For each condition, the signal from DFHBI without RNA was subtracted from each signal. Fluorescence was measured in 20 mM HEPES pH 7.4, 100 mM KCl and 1 mM MgCl2 at the designated temperature. Fluorescence measurements were performed using a PerkinElmer LS-55 fluorescence spectrometer using the following instrument parameters: excitation wavelength, 460 nm; emission wavelength, 501 nm; slit widths, 10 nm. Signal from the first condition (limiting RNA) was divided by the signal from the second condition (limiting dye) to determine the fraction folded.

[4] = Thermostability measurements of Spinach RNAs with DFHBI; type: physicochemical; settings: fluorescence of RNA-DFHBI complex in vitro, 20-60 °C; ±s.e.m.
Experimental: Thermostability Measurements: Spinach or Spinach2 (1 μM) was incubated in 20 mM HEPES pH 7.4, 100 mM KCl, 1 mM MgCl2 and 10 μM DFHBI. Fluorescence values were recorded in 1° C. increments from 20° C. to 60° C., with a 5-min incubation at each temperature to allow for equilibration. Fluorescence measurements were performed using a PerkinElmer LS-55 fluorescence spectrometer using the following instrument parameters: excitation wavelength, 460 nm; emission wavelength, 501 nm; slit widths, 10 nm. Curves were fitted using the Boltzmann sigmoidal equation in GraphPad Prism 5 software. Values presented are mean and s.e.m. from three independent measurements.

[5] = In vitro fluorescence (brightness) of Spinach RNAs, mutants and flanked/fused constructs with DFHBI; type: biochemical; settings: for fold brighter than the same construct fused to Spinach: in vitro
Description: Preparation and Analysis of Spinach and Spinach Mutants: RNAs were created by using the appropriate single-stranded DNA templates (Integrated DNA Technologies) and PCR amplification using primers that included a 5′ T7 promoter sequence to generate double-stranded DNA templates. PCR products were then purified with PCR purification columns (Qiagen) and used as templates for in vitro T7 transcription reactions (Epicentre) as described previously (Paige et al., “RNA mimics of green fluorescent protein,” Science 333: 642-646 (2011), which is hereby incorporated by reference in its entirety). RNA was purified using ammonium acetate precipitation, and quantified using both absorbance values and the Riboquant Assay kit (BD Biosciences). Photophysical characterization of Spinach2 was carried out as previously described (Paige et al., “RNA mimics of green fluorescent protein,” Science 333: 642-646 (2011), which is hereby incorporated by reference in its entirety).
Preparation and In Vitro Analysis of Flanked Spinach and Spinach2 Constructs: Spinach and Spinach2 constructs flanked on either side by 50 base pairs were generated by PCR. For Spinach, the following primers were used:
The 50-base-pair sequences were taken from the human β-actin 3′ untranslated region. Both forward primers encode the T7 RNA polymerase promoter for in vitro transcription. 5S-Spinach and 5S-Spinach2 were amplified by PCR from pAV-5S-Spinach and pAV-5S-Spinach2, respectively, using the following primers: […]
PCR products were used as templates for in vitro transcription by Ampliscribe T7 RNA polymerase as previously described (Paige et al., “RNA mimics of green fluorescent protein,” Science 333: 642-646 (2011), which is hereby incorporated by reference in its entirety). Fluorescence measurements were recorded for 0.1 μM RNA in the presence of 10 μM DFHBI in buffer composed of 20 mM HEPES pH 7.4, 100 mM KCl and […] as described above.
Next, systematic mutagenesis was carried out to identify thermostable Spinach mutants with improved folding. Because elevated G+C content can lead to stable misfolded structures (Kiliszek et al., “Crystal Structures of CGG RNA Repeats with Implications for Fragile X-Associated Tremor Attaxia Syndrome,” Nuc. Acids Res. 39:7308-7315 (2011); Sobczak et al., “RNA Structure of Trinucleotide Repeats Associated with Human Neurological Diseases,” Nuc. Acids Res. 31:5469-5482 (2003), each of which is hereby incorporated by reference in its entirety), it was reasoned that decreasing the overall G+C content could promote proper folding. Scanning mutagenesis was carried out, mutating every […] and cytosine to adenosine or uracil, respectively. In regions where G and C residues were predicted to form a base pair, both residues were mutated to A and U, to maintain the complementarity. Each of these 35 mutants was synthesized in vitro, and the fraction folded was measured at 25° C. and 42° C. Fluorescence signals that were equal to or greater than Spinach at 25° C. indicated equal or greater percent folded. A higher percentage signal at 42° C. indicated improved thermostability relative to Spinach.

[6] = Magnesium dependence of aptamer fluorescence; type: physicochemical
Experimental: To measure magnesium dependence 1 μM RNA was incubated with 10 μM 1T in 40 mM HEPES pH 7.4, 100 mM KCl buffer with different concentrations of MgCl2 and then fluorescence emission was measured on a plate reader.

[7] = tested on: E. coli; experiment: Whole-cell fluorescence measurements of E. coli expressing Spinach or Spinach2; type: cell-based, Escherichia coli
Experimental: Cloning Spinach2 for Expression in E. coli: Spinach and Spinach2 were PCR-amplified with primers containing the EagI restriction sites on both the 5′ and 3′ ends of the Spinach sequence.
Whole-Cell Fluorescence Measurements of E. coli: BL21 cells were transformed to harbor either pET28c-tRNA-Spinach or pET28c-tRNA-Spinach2, and grown in Luria broth with 100 μg/ml kanamycin to OD600 0.4 at room temperature. The cells were then induced with addition of 1 mM IPTG for 2 h at room temperature. After induction, cells were normalized for cell density and split into two aliquots. One aliquot per sample was incubated at room temperature, and the other was incubated for 20 min at 37° C. Cells were then measured for total fluorescence using a Tecan Safirell plate reader with 460±10 nm excitation and emission was recorded at 510±10 nm. Data shown represent mean and s.e.m. values for three independent experiments.

B1: tdBroccoli: dBroccoli in tRNA scaffold, SEQ ID NO: 40 (nucleic acid)
chain: GCCCGGATAGCTCAGTCGGTAGAGCAGCGGAGACGGTCGGGTCCATCTGAGACGGTCGGGTCCAGATATTCGTATCTGTCGAGTAGAGTGTGGGCTCAGATGTCGAGTAGAGTGTGGGCTCCGCGGGTCCAGGGTTCAAGTCCCTGTTCGGGCGCCA
modifications: tdBroccoli
With B1 as the molecule, how does the “fold more fluorescent than tBroccoli” value [1] read?
The value was about 1.8 fold.

And the “brighter than tBroccoli (mean fluorescence intensity of the green population)” value [2]?
Its value is 70%.

B2: Spinach2: RNA aptamer SEQ ID NO: 2; Spinach1.2 variant containing all six mutations (nucleic acid)
chain: GAUGUAACUGAAUGAAAUGGUGAAGGACGGGUCCAGUAGGCUGCUUCGGCAGCCUACUUGUUGAGUAGAGUGUGAGCUCCGUAACUAGUUACAUC
modifications: listed as RNA, chemistry not given here
notes: Spinach1.2 variant containing all six mutations
With B2 as the molecule, how does the percentage folded ([3]; 25 °C, in the presence of the tRNA (tRNA^Lys3 scaffold)) read?
The percentage folded was 80±6.1%.

And the percentage folded ([3]; 25 °C, no tRNA scaffold)?
The percentage folded was 58±4.8%.

And the percentage folded ([3]; 37 °C, in the presence of the tRNA (tRNA^Lys3 scaffold))?
The percentage folded was 60±5.4%.

What about the percentage folded ([3]; 37 °C, no tRNA scaffold) of the same molecule?
Its percentage folded is 37±3.3%.

What about the “melting temperature (Tm)” value [4] of the same molecule?
The value was 38±0.4 °C.

What about the “fluorescence retained when fused to the CGG repeat-containing RNA” value [5] of the same molecule?
The value was 80%.

What about the “fold brighter than Spinach in vitro” value ([5]; 25 °C) of the same molecule?
The value was 1.8 fold.

And the “fold brighter than Spinach in vitro” value ([5]; 37 °C)?
Its value is 2.8 fold.

What about the “brightness of flanked RNA relative to the same aptamer alone” value ([5]; flanked by 50 nt of RNA on both 5′ and 3′ ends, 0.1 μM RNA) of the same molecule?
Its value is 90%.

What about the “brightness of flanked Spinach2 versus flanked Spinach” value ([5]; flanked by 50 nt of RNA on both ends) of the same molecule?
The value was “tenfold brighter than flanked Spinach”.

And the “fold brighter than the same construct fused to Spinach” value ([5]; fusion with 5S RNA)?
Its value is 3 fold.

And the “fold brighter than the same construct fused to Spinach” value ([5]; fusion with 7SK RNA)?
The value was 6 fold.

What about the “fold brighter than the same construct fused to Spinach” value ([5]; fusion with (CGG)60 RNA) of the same molecule?
Its value is 20 fold.

What about the “fluorescence retained by tagged Spinach2 relative to Spinach2 alone” value ([5]; fusions with 5S, 7SK and (CGG)60 RNA, all cases) of the same molecule?
Its value is “more than 70%”.

And the “Percent Brightness (at 42° C.)” value ([5]; percent of signal remaining at 42 °C for a given mutant)?
The value was 41%.

And the “Relative Brightness (at 25° C.)” value ([5]; relative to Spinach, 25 °C)?
The value was 1.8.

What about the “percent of maximal fluorescence in magnesium-free buffer” value ([6]; 1 μM RNA, 10 μM DFHBI-1T) of the same molecule?
The value was 11%.

And the “magnesium concentration giving maximal fluorescence” value ([6]; MgCl2 titration)?
The value was about 1 mM.

And the “percent of maximal fluorescence at ~300 μM magnesium” value ([6]; MgCl2 titration)?
The value was 50%.

What about the “fold brighter than Spinach in Escherichia coli” value ([7]; 25 °C) of the same molecule?
Its value is 1.4 fold.

And the “fold brighter than Spinach in Escherichia coli” value ([7]; 37 °C)?
The value was 2.1 fold.
